Where two headings read alike, the source gives them in different places.
How the values were obtained:
human FcRn antigen = human FcRn antigen (human, UniProt P55899 24-297; P61769 21-119); test: SPR (Biacore), antibody captured on anti-human Fab chip, human FcRn as analyte, steady state model
Protocol: The test antibody was affinity-captured on an anti-human Fab chip, and a series of concentrations of human FcRn antigen (purchased from AcroBiosystem) were allowed to flow over the chip surface. Reaction signals where the reactions were in a steady state were detected in real time using a Biacore instrument. The buffer used in the experiment was HBS-EP+10× buffer solution (Cat. #BR-1006-69, GE) diluted to 1× (pH 7.4) with D. I. Water. Fitting was performed on the data obtained from the experiment using a steady state binding model to obtain affinity values. The anti-CD40 antibodies carrying the AAYTE mutation have a higher binding affinity for human FcRn than their parent antibodies.

[1] = molecular target: T1, his-tagged human CD40 (h-CD40-his) recombinant protein (human, UniProt P25942 21-193); test: SPR (Biacore), antibody captured on anti-human Fc chip, His-tagged CD40 as analyte, 1:1 model
T1 construct: Bought from Acrobiosystems, Cat. #CD0-H5228; also called His-tagged human CD40 antigen; not shown: His tag
Protocol: (§1) The test antibody was affinity-captured on an anti-human Fc chip, and a series of concentrations of His-tagged human or cynomolgus monkey CD40 antigen were allowed to flow over the chip surface. Reaction signals were detected in real time using a Biacore instrument, and thus binding and dissociation curves were obtained. The buffer used in the experiment was HBS-EP+10× buffer solution (Cat. #BR-1006-69, GE) diluted to 1× (pH 7.4) with D. I. Water. Fitting was performed on the data obtained from the experiment using a (1:1) Binding model to obtain affinity values. 9E6-L4H2 and 2F12-L4H2 have similar binding constants for human CD40 to CFZ533, 9E6-L4H2 has a stronger binding affinity for cynomolgus monkey CD40, and 2F12-L4H2 has a slightly weak binding affinity for cynomolgus monkey CD40.

[2] = molecular target: T2, his-tagged cynomolgus monkey CD40 (cyno-CD40-his) recombinant protein (cynomolgus monkey); test: as above
T2 construct: Bought from Acrobiosystems, Cat. #CD0-C52H6
Protocol: as §1

[3] = molecular target: T3, human CD40 on the cell surface (human, UniProt P25942 21-277); test: cell-based or functional assay
[4] = molecular target: T3, human CD40 on the cell surface; test: cell-based or functional assay; remark: listed apart in the source
[5] = molecular target: T3, human CD40 on the cell surface; test: cell-based or functional assay; remark: listed apart in the source
[6] = molecular target: T3, human CD40 on the cell surface; test: flow cytometry on Raji cells, Alexa Fluor 488 anti-human IgG (H+L) detection
Protocol: Raji cells were plated at 1.5E5/well, and various concentrations of CD40 antagonistic antibodies were added. The plate was incubated at 4° C. for 1 h. After two washes with FACS buffer (PBS+2% FBS), a secondary antibody (Alexa Flour488 conjugated anti-human IgG (H+L) antibody) was added, and the plate was incubated at 4° C. for 0.5 h.
After two washes with FACS buffer, the fluorescence intensity on the cell surface was measured by flow cytometry (BD FACS Celesta).

[7] = molecular target: T3, human CD40 on the cell surface; test: cell-based or functional assay; remark: listed apart in the source
[8] = molecular target: T3, human CD40 on the cell surface; test: cell-based or functional assay; remark: listed apart in the source
[9] = molecular target: T3, human CD40 on the cell surface; test: cell-based or functional assay; remark: listed apart in the source
[10] = molecular target: T3, human CD40 on the cell surface; test: cell-based or functional assay; remark: listed apart in the source
[11] = molecular target: T3, human CD40 on the cell surface; test: cell-based or functional assay; remark: listed apart in the source

T1 sequence (P25942 21-193 limits assumed): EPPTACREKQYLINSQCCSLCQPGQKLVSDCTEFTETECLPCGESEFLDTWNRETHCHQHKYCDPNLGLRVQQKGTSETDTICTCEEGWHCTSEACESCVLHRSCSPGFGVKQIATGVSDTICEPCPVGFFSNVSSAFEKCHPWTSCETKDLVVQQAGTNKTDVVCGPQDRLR
T3 sequence (P25942 21-277): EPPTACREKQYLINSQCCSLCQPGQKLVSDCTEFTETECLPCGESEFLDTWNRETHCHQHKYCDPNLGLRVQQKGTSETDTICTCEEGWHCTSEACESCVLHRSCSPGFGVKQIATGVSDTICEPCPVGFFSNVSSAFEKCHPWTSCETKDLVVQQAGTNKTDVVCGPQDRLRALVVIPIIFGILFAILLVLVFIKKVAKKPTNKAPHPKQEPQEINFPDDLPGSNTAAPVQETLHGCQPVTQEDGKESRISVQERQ
Sequence of human FcRn antigen (P55899 24-297 limits assumed, chain 1 of 2): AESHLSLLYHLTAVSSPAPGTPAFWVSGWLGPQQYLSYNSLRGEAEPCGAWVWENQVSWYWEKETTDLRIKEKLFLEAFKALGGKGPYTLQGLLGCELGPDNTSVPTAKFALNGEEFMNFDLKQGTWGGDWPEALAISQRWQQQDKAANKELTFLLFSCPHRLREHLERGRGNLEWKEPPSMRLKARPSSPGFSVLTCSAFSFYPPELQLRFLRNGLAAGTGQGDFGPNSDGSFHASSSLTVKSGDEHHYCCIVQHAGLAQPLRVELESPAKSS
Sequence of human FcRn antigen (P61769 21-119 limits assumed, chain 2 of 2): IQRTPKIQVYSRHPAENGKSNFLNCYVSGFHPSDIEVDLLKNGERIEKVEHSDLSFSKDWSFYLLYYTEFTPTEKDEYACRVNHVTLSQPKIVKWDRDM

B1: humanized anti-CD40 antibody 2F12-L4H2 (antibody, human IgG1, kappa, N297A)
heavy: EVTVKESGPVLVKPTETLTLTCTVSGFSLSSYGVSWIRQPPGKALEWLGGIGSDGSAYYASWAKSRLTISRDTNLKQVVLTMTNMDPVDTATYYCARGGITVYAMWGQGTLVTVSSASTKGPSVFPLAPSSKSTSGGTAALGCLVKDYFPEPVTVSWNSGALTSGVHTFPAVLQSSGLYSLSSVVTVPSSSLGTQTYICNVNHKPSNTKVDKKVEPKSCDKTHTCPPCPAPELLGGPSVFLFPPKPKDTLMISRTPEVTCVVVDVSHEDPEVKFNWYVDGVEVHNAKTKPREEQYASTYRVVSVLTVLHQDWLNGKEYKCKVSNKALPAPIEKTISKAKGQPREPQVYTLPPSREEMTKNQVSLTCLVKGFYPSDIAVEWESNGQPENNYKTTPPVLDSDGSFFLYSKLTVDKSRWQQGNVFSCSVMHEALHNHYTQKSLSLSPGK
light: AFQLTQSPSSLSASVGDRVTITCQASQSISTGLAWYQQKPGKPPKLLIVGASNLASGVPSRFSGSGSGTDFTLTISSLQPEDFATYYCQSYFSSSSTVFGGGTKVEIKRTVAAPSVFIFPPSDEQLKSGTASVVCLLNNFYPREAKVQWKVDNALQSGNSQESVTEQDSKDSTYSLSSTLTLSKADYEKHKVYACEVTHQGLSSPVTKSFNRGEC
notes: human IgG1 N297A (Eu) heavy chain, human kappa light chain; 2F12-L4 light chain and 2F12-H2 heavy chain
Kd (human FcRn antigen): 279 nM
Kd [1]: 2.71 nM
koff [1]: 0.00206 s⁻¹
kon [1]: 758000 M⁻¹ s⁻¹
Kd [2]: 35.3 nM
koff [2]: 0.414 s⁻¹
kon [2]: 1.17e+07 M⁻¹ s⁻¹
IC50 in DC cell activation assay system, CD80 MFI [3]: 0.78 nM
IC50 in DC cell activation assay system, CD86 MFI [3]: 0.52 nM
IC50 in DC cell activation assay system, IL-12/23 p40 [3]: 0.68 nM
IC50 in DC cell activation assay system, TNFα [3]: 0.3 nM
IC50 (read off the curve), CD40L-induced IL-12/23 p40 secretion by DC cells [4]: ~0.7 nM
IC50 for the inhibition of CD40 reporter gene cell activity (Assay 1) [5]: 0.18 nM
EC50 [6]: 0.589 nM
IC50 (read off the curve), CD40L-induced TNFα secretion by DC cells [7]: ~0.4 nM
B cell activation assay, CD19+CD69+ % IC50 [8]: 0.04 nM
B cell activation assay, CD19+CD69+ MFI IC50 [8]: 0.03 nM

B2: humanized anti-CD40 antibody 2F12-L4H2-AAYTE (antibody, human IgG1, kappa, L234A L235A)
heavy: EVTVKESGPVLVKPTETLTLTCTVSGFSLSSYGVSWIRQPPGKALEWLGGIGSDGSAYYASWAKSRLTISRDTNLKQVVLTMTNMDPVDTATYYCARGGITVYAMWGQGTLVTVSSASTKGPSVFPLAPSSKSTSGGTAALGCLVKDYFPEPVTVSWNSGALTSGVHTFPAVLQSSGLYSLSSVVTVPSSSLGTQTYICNVNHKPSNTKVDKKVEPKSCDKTHTCPPCPAPEAAGGPSVFLFPPKPKDTLYITREPEVTCVVVDVSHEDPEVKFNWYVDGVEVHNAKTKPREEQYNSTYRVVSVLTVLHQDWLNGKEYKCKVSNKALPAPIEKTISKAKGQPREPQVYTLPPSREEMTKNQVSLTCLVKGFYPSDIAVEWESNGQPENNYKTTPPVLDSDGSFFLYSKLTVDKSRWQQGNVFSCSVMHEALHNHYTQKSLSLSPGK
light: AFQLTQSPSSLSASVGDRVTITCQASQSISTGLAWYQQKPGKPPKLLIVGASNLASGVPSRFSGSGSGTDFTLTISSLQPEDFATYYCQSYFSSSSTVFGGGTKVEIKRTVAAPSVFIFPPSDEQLKSGTASVVCLLNNFYPREAKVQWKVDNALQSGNSQESVTEQDSKDSTYSLSSTLTLSKADYEKHKVYACEVTHQGLSSPVTKSFNRGEC
notes: light chain unchanged from 2F12-L4H2
Kd (human FcRn antigen): 44.2 nM
IC50 (read off the curve), CD40L-induced IL-12/23 p40 secretion by DC cells [4]: ~0.6 nM
IC50 (read off the curve), CD40L-induced TNFα secretion by DC cells [7]: ~0.3 nM

B3: humanized anti-CD40 antibody 9E6-L4H2 (antibody, human IgG1, kappa, N297A)
heavy: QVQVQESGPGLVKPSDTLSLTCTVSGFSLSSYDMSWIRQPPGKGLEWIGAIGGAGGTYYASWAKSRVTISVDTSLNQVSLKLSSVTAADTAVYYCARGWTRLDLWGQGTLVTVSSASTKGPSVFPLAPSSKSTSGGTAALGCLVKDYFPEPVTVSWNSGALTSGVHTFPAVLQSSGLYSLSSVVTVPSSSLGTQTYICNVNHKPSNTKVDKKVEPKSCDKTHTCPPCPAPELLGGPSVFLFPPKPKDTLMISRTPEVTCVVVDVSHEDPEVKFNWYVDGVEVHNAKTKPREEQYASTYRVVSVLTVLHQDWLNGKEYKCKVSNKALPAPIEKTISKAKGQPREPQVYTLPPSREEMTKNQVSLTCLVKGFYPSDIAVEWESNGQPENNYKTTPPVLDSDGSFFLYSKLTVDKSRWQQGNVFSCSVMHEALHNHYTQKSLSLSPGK
light: DIQLTQSPSFLSASVGDRVTITCQASEDISSNLAWYQQKPGKPPKLLIFPASNLASGVPSRFSGSGSGTEFTLTISSLQPEDFATYYCQGGYWTSTSNFGQGFGGGTKVEIKRTVAAPSVFIFPPSDEQLKSGTASVVCLLNNFYPREAKVQWKVDNALQSGNSQESVTEQDSKDSTYSLSSTLTLSKADYEKHKVYACEVTHQGLSSPVTKSFNRGEC
notes: human IgG1 N297A (Eu) heavy chain, human kappa light chain; 9E6-L4 light chain and 9E6-H2 heavy chain
IC50 (read off the curve), CD40L-induced TNFα secretion by DC cells [9]: ~0.7 nM
IC50 (read off the curve), CD40L-induced IL-12/23 p40 secretion by DC cells [10]: 1 to 2 nM
Kd (human FcRn antigen): 293 nM
Kd [1]: 0.536 nM
koff [1]: 0.000221 s⁻¹
kon [1]: 413000 M⁻¹ s⁻¹
Kd [2]: 0.121 nM
koff [2]: 6.23e-05 s⁻¹
kon [2]: 514000 M⁻¹ s⁻¹
IC50 in DC cell activation assay system, CD80 MFI [3]: 3.44 nM
IC50 in DC cell activation assay system, CD86 MFI [3]: 3.72 nM
IC50 in DC cell activation assay system, IL-12/23 p40 [3]: 1.85 nM
IC50 in DC cell activation assay system, TNFα [3]: 0.7 nM
IC50 for the inhibition of CD40 reporter gene cell activity (Assay 2) [5]: 0.5 nM
EC50 [6]: 0.87 nM
IC50 (read off the curve), CD40L-induced B cell activation (CD19+CD69+ MFI) [11]: ~0.2 nM
B cell activation assay, CD19+CD69+ % IC50 [8]: 0.14 nM
B cell activation assay, CD19+CD69+ MFI IC50 [8]: 0.07 nM

B4: humanized anti-CD40 antibody 9E6-L4H2-AAYTE (antibody, human IgG1, kappa, L234A L235A)
heavy: QVQVQESGPGLVKPSDTLSLTCTVSGFSLSSYDMSWIRQPPGKGLEWIGAIGGAGGTYYASWAKSRVTISVDTSLNQVSLKLSSVTAADTAVYYCARGWTRLDLWGQGTLVTVSSASTKGPSVFPLAPSSKSTSGGTAALGCLVKDYFPEPVTVSWNSGALTSGVHTFPAVLQSSGLYSLSSVVTVPSSSLGTQTYICNVNHKPSNTKVDKKVEPKSCDKTHTCPPCPAPEAAGGPSVFLFPPKPKDTLYITREPEVTCVVVDVSHEDPEVKFNWYVDGVEVHNAKTKPREEQYNSTYRVVSVLTVLHQDWLNGKEYKCKVSNKALPAPIEKTISKAKGQPREPQVYTLPPSREEMTKNQVSLTCLVKGFYPSDIAVEWESNGQPENNYKTTPPVLDSDGSFFLYSKLTVDKSRWQQGNVFSCSVMHEALHNHYTQKSLSLSPGK
light: DIQLTQSPSFLSASVGDRVTITCQASEDISSNLAWYQQKPGKPPKLLIFPASNLASGVPSRFSGSGSGTEFTLTISSLQPEDFATYYCQGGYWTSTSNFGQGFGGGTKVEIKRTVAAPSVFIFPPSDEQLKSGTASVVCLLNNFYPREAKVQWKVDNALQSGNSQESVTEQDSKDSTYSLSSTLTLSKADYEKHKVYACEVTHQGLSSPVTKSFNRGEC
notes: light chain unchanged from 9E6-L4H2
IC50 (read off the curve), CD40L-induced TNFα secretion by DC cells [9]: ~0.5 nM
IC50 (read off the curve), CD40L-induced IL-12/23 p40 secretion by DC cells [10]: ~1 nM
Kd (human FcRn antigen): 39.8 nM
IC50 (read off the curve), CD40L-induced B cell activation (CD19+CD69+ MFI) [11]: ~0.2 nM

— US20250340661A1 (JIANGSU HENGRUI PHARMACEUTICALS, published 2025)
